The series deals with the molecule itself. The experiment in a line: cross-linking.

The values below come from publication PMC2724282 (Nucleic Acids Research, 2009).

B1: Hin–H107Y/S94C (enzyme)
chain: MATIGYIRVSTIDQNIDLQRNALTSANCDRIFEDRISGKIANRPGLKRALKYVNKGDTLVVWKLDRLGRSVKNLVALISELHERGAHFHSLTDCIDTSSAMGRFFFYVMSALAEMERELIVERTLAGLAAARAQGRLGGRPRAINKHEQEQISRLLEKGHPRQQLAIIFGIGVSTLYRYFPASRIKKRMN
Turning to B1, the binding result is on record as “binds”.
